From article PMC8464063, “The bacterial iron sensor IdeR recognizes its DNA targets by indirect readout”
Each block holds one molecule with its values, some of them ahead of it.

Tests used:
[1] = molecular target: Saccharopolyspora erythraea iron-dependent regulator IdeR, wild type (Saccharopolyspora erythraea); experiment: crystal structure; IdeR (WT, Q43A or P39G) with 1 mM CoCl2 or Fe(NH4)2(SO4)2 and 150 uM 30-bp double-stranded DNA (consensus or C10S1); space group C2, two IdeR dimers and one DNA duplex in the asymmetric unit
[2] = molecular target: Saccharopolyspora erythraea iron-dependent regulator IdeR, wild type (Saccharopolyspora erythraea); experiment: crystal structure; Co2+-activated IdeR WT without DNA; 12 mg/ml protein with 1 mM CoCl2 and 0.3 mg/ml trypsin before crystallisation; 25% PEG 1500, 20°C; space group P1, one IdeR dimer in the asymmetric unit
[3] = molecular target: Saccharopolyspora erythraea IdeR Q43A variant (Saccharopolyspora erythraea); experiment: crystal structure; IdeR (WT, Q43A or P39G) with 1 mM CoCl2 or Fe(NH4)2(SO4)2 and 150 uM 30-bp double-stranded DNA (consensus or C10S1); space group C2, two IdeR dimers and one DNA duplex in the asymmetric unit
[4] = molecular target: Saccharopolyspora erythraea IdeR P39G variant (Saccharopolyspora erythraea); experiment: as above
[5] = molecular target: T1, IdeR WT (Saccharopolyspora erythraea DSM 40517, UniProt A0ABF7PL34 1-231); experiment: EMSA; 30 uM Co2+; up to 22.5 uM dimer; EMSA: 15 mM Tris-acetate pH 7.3, 4 mM K-acetate, 10% glycerol, 17 ng/ul poly(dI-dC), 30 nM DNA, 30 uM Co2+, IdeR 15 nM-2.25 uM dimer, 20 min room temperature; 4% native gel at 4 C; conditions: protein: recombinant, tags: N-terminal His6 removed by TEV, Gly-His remains before Met1, chain copies: 4, blunt
[6] = molecular target: T1, IdeR WT; experiment: EMSA; 30 uM Co2+; EMSA: 15 mM Tris-acetate pH 7.3, 4 mM K-acetate, 10% glycerol, 17 ng/ul poly(dI-dC), 30 nM DNA, 30 uM Co2+, IdeR 15 nM-2.25 uM dimer, 20 min room temperature; 4% native gel at 4 C; conditions: protein: recombinant, tags: N-terminal His6 removed by TEV, Gly-His remains before Met1, chain copies: 4, blunt
[7] = molecular target: T2, IdeR P39G (Saccharopolyspora erythraea DSM 40517, UniProt A0ABF7PL34 1-231, P39G); experiment: X-ray crystallography; Co2+; two dimers per duplex; EMSA: 15 mM Tris-acetate pH 7.3, 4 mM K-acetate, 10% glycerol, 17 ng/ul poly(dI-dC), 30 nM DNA, 30 uM Co2+, IdeR 15 nM-2.25 uM dimer, 20 min room temperature; 4% native gel at 4 C; conditions: protein: recombinant; tags: N-terminal His6 removed by TEV; Gly-His remains before Met1; chain copies: 4; blunt
[8] = molecular target: T1, IdeR WT; experiment: X-ray crystallography; Fe2+; two dimers per duplex; EMSA: 15 mM Tris-acetate pH 7.3, 4 mM K-acetate, 10% glycerol, 17 ng/ul poly(dI-dC), 30 nM DNA, 30 uM Co2+, IdeR 15 nM-2.25 uM dimer, 20 min room temperature; 4% native gel at 4 C; conditions: protein: recombinant; tags: N-terminal His6 removed by TEV; Gly-His remains before Met1; chain copies: 4; blunt
[9] = molecular target: T2, IdeR P39G; experiment: EMSA; 30 uM Co2+; EMSA: 15 mM Tris-acetate pH 7.3, 4 mM K-acetate, 10% glycerol, 17 ng/ul poly(dI-dC), 30 nM DNA, 30 uM Co2+, IdeR 15 nM-2.25 uM dimer, 20 min room temperature; 4% native gel at 4 C; conditions: protein: recombinant; tags: N-terminal His6 removed by TEV; Gly-His remains before Met1; chain copies: 4; label: 5' Cy5 or 5' FAM on strand 1; blunt
[10] = molecular target: IdeR Q43A (Saccharopolyspora erythraea DSM 40517, UniProt A0ABF7PL34 1-231, Q43A); experiment: as above; conditions: protein: recombinant; tags: N-terminal His6 removed by TEV; Gly-His remains before Met1; chain copies: 4; label: 5' Cy5 or 5' FAM on strand 1; blunt
[11] = molecular target: T1, IdeR WT; experiment: EMSA; 30 uM Co2+; one dimer bound; EMSA: 15 mM Tris-acetate pH 7.3, 4 mM K-acetate, 10% glycerol, 17 ng/ul poly(dI-dC), 30 nM DNA, 30 uM Co2+, IdeR 15 nM-2.25 uM dimer, 20 min room temperature; 4% native gel at 4 C; conditions: protein: recombinant; tags: N-terminal His6 removed by TEV; Gly-His remains before Met1; chain copies: 4; label: 5' Cy5 on strand 1; blunt

- stoichiometry N [1]: 2
- stoichiometry N [2]: 2
Molecule: Saccharopolyspora erythraea iron-dependent regulator IdeR, wild type (natural protein)

- stoichiometry N [3]: 2
Molecule: Saccharopolyspora erythraea IdeR Q43A variant (natural protein)

- stoichiometry N [4]: 2
Molecule: Saccharopolyspora erythraea IdeR P39G variant (natural protein)

B1: Consensus_T3-G3 (dsDNA)
DNA 1: CGTACTTCGGTTCGGCGAACCGAAGTACG
DNA 2: CGTACTTCGGTTCGCCGAACCGAAGTACG
- binding result ([5]; label: 5' Cy5 on strand 1): no binding

B2: Consensus_C1-T1 (dsDNA)
DNA 1: CGTACTTAGATTAGACTAATCTAAGTACG
DNA 2: CGTACTTAGATTAGTCTAATCTAAGTACG
- Kd ([6]; label: 5' Cy5 on strand 1): ~70 nM

B3: Minimal_NCTNN (dsDNA)
DNA 1: CGTACGCAGACGAGACTCGTCTGCGCTACG
DNA 2: CGTAGCGCAGACGAGTCTCGTCTGCGTACG
- binding result ([5]; label: 5' FAM on strand 1): no binding

B4: Consensus_C1C2-T1T2 (dsDNA)
DNA 1: CGTACTTAAATTAAATTAATTTAAGTACG
DNA 2: CGTACTTAAATTAATTTAATTTAAGTACG
- binding result ([5]; label: 5' Cy5 on strand 1): no binding

B5: Minimal_CNTNN (dsDNA)
DNA 1: CGTACGCACGCGATGCTCGCATCCGTACG
DNA 2: CGTACGGATGCGAGCATCGCGTGCGTACG
- binding result ([5]; label: 5' Cy5 on strand 1): no binding

B6: Cons_long (crystal) (dsDNA)
DNA 1: CGTACTTAGGTTAGGCTAACCTAAGTCACG
DNA 2: CGTGACTTAGGTTAGCCTAACCTAAGTACG
- binding result [7]: binds
- binding result [8]: binds

B7: Consensus_Full (dsDNA)
DNA 1: CGTACTTAGGTTAGGCTAACCTAAGTACG
DNA 2: CGTACTTAGGTTAGCCTAACCTAAGTACG
- Kd [9]: ~264 nM
- Kd ([6]; label: 5' Cy5 or 5' FAM on strand 1): ~45 nM
- Kd [10]: ~65 nM

B8: C23S1 (dsDNA)
DNA 1: AGTCATAAAGTTAGGTTCGCCTCACTACT
DNA 2: AGTAGTGAGGCGAACCTAACTTTATGACT
- Kd [11]: ~102 nM

B9: Consensus_C2-T2 (dsDNA)
DNA 1: CGTACTTAAGTTAAGTTAACTTAAGTCACG
DNA 2: CGTGACTTAAGTTAACTTAACTTAAGTACG
- Kd ([6]; label: 5' FAM on strand 1): ~105 nM

B10: C10S1 (dsDNA)
DNA 1: CGTACTTTGGTAAAGCTAACCTAAGTCACC
DNA 2: GGTGACTTAGGTTAGCTTTACCAAAGTACG
- Kd ([6]; label: 5' FAM on strand 1): ~116 nM

B11: C10S2 (dsDNA)
DNA 1: GATGCTTAGGTTAGCCTACCCGACGCTGA
DNA 2: TCAGCGTCGGGTAGGCTAACCTAAGCATC
- Kd ([6]; label: 5' Cy5 on strand 1): ~94 nM

B12: Half site (dsDNA)
DNA 1: CGTACCCGGTTTAGGGCCACCTAAGTACG
DNA 2: CGTACTTAGGTGGCCCTAAACCGGGTACG
- Kd [11]: ~78 nM

B13: Consensus_A4A5-S4S5 (dsDNA)
DNA 1: CGTACGCAGGCGAGGCTCGCCTGCGTACG
DNA 2: CGTACGCAGGCGAGCCTCGCCTGCGTACG
- Kd ([6]; label: 5' Cy5 on strand 1): ~128 nM
